Laboratory results from article PMC11098746 (2024).

Experiments:
Experiment in all cases: AVEXIS screen signal:noise (double-corrected)
ADP262 = target: T1, ADP262
T1 chain: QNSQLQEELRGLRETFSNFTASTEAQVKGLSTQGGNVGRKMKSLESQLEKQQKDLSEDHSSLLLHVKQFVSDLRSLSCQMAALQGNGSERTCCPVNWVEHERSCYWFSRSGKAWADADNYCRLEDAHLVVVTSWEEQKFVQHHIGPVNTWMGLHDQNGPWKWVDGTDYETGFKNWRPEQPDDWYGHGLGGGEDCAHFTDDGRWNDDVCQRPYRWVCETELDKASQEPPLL

ADP155 = target: T2, ADP155
T2 chain: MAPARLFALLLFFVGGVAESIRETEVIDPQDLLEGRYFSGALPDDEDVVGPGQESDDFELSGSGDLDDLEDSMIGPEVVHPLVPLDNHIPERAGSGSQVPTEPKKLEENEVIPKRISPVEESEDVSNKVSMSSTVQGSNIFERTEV

ADP154 = target: T3, ADP154
T3 chain: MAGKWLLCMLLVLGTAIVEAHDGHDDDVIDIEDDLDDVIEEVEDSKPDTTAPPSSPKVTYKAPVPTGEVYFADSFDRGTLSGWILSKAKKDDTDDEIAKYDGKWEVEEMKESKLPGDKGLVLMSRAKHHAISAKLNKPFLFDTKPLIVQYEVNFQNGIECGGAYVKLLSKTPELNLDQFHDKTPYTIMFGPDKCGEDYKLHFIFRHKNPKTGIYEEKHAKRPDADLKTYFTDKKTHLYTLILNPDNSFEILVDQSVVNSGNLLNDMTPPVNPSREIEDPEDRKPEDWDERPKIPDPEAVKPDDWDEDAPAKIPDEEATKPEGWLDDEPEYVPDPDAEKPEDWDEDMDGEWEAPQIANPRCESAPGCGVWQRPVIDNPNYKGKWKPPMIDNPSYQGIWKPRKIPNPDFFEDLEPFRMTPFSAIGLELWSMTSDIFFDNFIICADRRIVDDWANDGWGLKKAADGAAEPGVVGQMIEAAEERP

ADP378 = target: T4, ADP378
T4 chain: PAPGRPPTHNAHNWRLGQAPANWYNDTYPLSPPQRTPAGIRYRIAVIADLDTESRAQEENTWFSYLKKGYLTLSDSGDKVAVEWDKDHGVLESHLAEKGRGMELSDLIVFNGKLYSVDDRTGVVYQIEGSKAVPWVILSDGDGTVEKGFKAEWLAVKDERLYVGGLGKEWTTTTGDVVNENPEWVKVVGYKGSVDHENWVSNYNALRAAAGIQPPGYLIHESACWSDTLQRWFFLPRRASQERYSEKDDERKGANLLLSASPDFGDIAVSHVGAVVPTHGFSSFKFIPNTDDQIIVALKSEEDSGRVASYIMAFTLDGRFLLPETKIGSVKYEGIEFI

ADP385 = target: T5, ADP385
T5 chain: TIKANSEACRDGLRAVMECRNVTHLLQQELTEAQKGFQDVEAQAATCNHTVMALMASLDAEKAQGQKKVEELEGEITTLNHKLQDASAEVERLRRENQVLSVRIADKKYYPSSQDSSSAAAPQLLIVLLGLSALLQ

ADP318 = target: T6, ADP318
T6 chain: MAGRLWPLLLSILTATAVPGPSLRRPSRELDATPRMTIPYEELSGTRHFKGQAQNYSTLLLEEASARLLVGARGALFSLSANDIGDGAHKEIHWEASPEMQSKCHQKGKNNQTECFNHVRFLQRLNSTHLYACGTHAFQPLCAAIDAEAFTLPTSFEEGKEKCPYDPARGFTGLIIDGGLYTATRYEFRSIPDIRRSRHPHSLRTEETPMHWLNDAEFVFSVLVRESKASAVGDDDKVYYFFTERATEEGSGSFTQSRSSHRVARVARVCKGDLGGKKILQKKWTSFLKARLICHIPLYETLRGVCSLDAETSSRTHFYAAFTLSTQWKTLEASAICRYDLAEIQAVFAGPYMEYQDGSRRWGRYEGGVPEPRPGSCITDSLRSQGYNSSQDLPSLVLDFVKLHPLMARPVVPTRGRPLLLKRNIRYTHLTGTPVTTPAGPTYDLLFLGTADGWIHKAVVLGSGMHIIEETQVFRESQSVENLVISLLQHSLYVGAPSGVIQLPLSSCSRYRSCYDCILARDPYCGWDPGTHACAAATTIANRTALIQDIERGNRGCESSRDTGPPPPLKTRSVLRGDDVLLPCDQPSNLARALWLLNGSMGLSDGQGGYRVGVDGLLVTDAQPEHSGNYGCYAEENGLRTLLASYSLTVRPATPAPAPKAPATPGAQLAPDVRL

B1: ADP239 (protein)
chain: NNLDKNKNFIQYKNFKKNKAYKYKNNNNNIIIINSHSHSNSHSNSHSHSNSHSNSHSHSNSHSNSHSHSNSHSHSHSNSHSNSHSHSSTQNSLYHDTNQANFLKPTSFFLYKHHVYFNQKYKKDPNILNKLKVPRNHIFHINKCDLNYYIQNYEFFFFFPDYYEYSHLYIRLDKLFYFQRCGCDTNIKKTKKRNQNIFNNMLGMKEKDTYLQNEICDIYWNYLKDDNTYDKYNFAIINYIKNIIKKMYRYLYIYKVFVLKQFYRIVYYNQGIRNFYYMLFSYIYNKGSIIYNYNQMYFKKHRKKQTIIRSKRFMNEHIKEEDVDYNIVKDEKDKSIQSTEQKSYLKNNAIQYFQCFLDKAMENKNAENELDKWIDPQSKSCYCSEEFAEPCTSEDLVDINNINQIMDNAFCEYNNNDNNNNDNNKNNNNNINNIINIYDNNILGDNVKNIFVALSEYKILQCNDKEKKDIIKKEQLYNYCKYGLNIWDNKNMYDYLNCLNVISYNKKDDKTCIRKCENIKKLCNIVAQFYSFEVCKKYYENNKHTEDIYINNFKYFSDHCKYIDPTNRGLVLCKHKNVECVYSQWSEWSTCSKTCIENEYDTNSARTRTRILLNKFEVPSKSCSFIINEKNNLMDINFCSYLPFCNKNNDMKKKDDERIMPFVISIKEIEKLNTLKYLNNDDNDLLNENYKNYESVHKNNECKVTDMYQYEYAISYNEKNKACSCPNNQAPCYFKDIYNSESWKKSLHILCKHNPHINVITADYIIIDCNMAISIKKKEIAVNTYLAMTFNCHSDIFQYIFCAKNIQSIRTN
modifications: bait human Fc-tagged dimer; N-glycosylation sequons mutated in Plasmodium baits
binding score (ADP262): 6.08

B2: ADP243 (protein)
chain: SDSYSTGGNEKEKIFMDNYKYMWTYIYFLQKRIMMKKLSHPLYMSKKFILLHNPKDIEEFRIPLKDTLWSYVDRNSIKGFININLDSIFDIDLKEYYVHDKENMANSEKSEDLECIDAYVQKTNEIYYNMADTKDEAYIFICKKCKHIYKDIKECREKSMQLMIQNMKITVPQIRLKYDKKNRNNEEIIINIPVTYVLSNLLSSLKKTVTYNTDDLNNACNVLIKMLHLDLLKILYNLQYHNGIFNGITEKYLIEFRNIFVKRQKTNTEDNNDMIWEECFVLKKSIDKIMNINSFLLTKSRNRYMDYLQNRRKRYRDILFMITYNVADMNLNTYIKSIYNYIHISTKIIEDIQYIYNQEVYATFFVRTELIETYLLRNPKQLKNTCSIYIMITISWFFNQINIGMYNKNKNVYDLFKEKFSKSNVKQIINSIYTNNVENKANILQICNDAMTNTIELIKKVIKNYYKQNNVLSNYNINFAGLIKFIDIQILRMKFIQSTLEKQPLIEYDTLNDDHLNNDAIIKRENMVCMMKYISNKINTYISLLKKSDLQTIMLQNYDKYNIYLDTYFTHNENVFFCSSPGQYLIIKIFFYSFFNILNIYG
modifications: bait human Fc-tagged dimer; N-glycosylation sequons mutated in Plasmodium baits
binding score (ADP155): 8.67
binding score (ADP154): 8.73

B3: ADP244 (protein)
chain: GIITGKLNYFGTFSLKIFAKTYFQYKINTYSNLYSYCGISQEYNKAKSTCESCPIGTFWNSEKLLCENCQKYIENTATLKNGAKLKTDCLCSPGYEYSDKSSKCEKCKPGYYKKSVGNFICIKGCPINEKSITYGAKSYAEMDCKCIEGYYRKEDKCVLCLSNYYCPGNELIKPCDKNKISKEGVIHKNDCICKENYIKDNKNNNCVYCASIAKILGKPIYCSLCDPIYFHEDIYKNIFLLPNNIHNYGLINNIYNYDEDLSLQGNIMKYAYFHKTTNIERNFAHYINIKNIYHTFNNNINNYDYLTNSKFAIEIDIPEPKKCIFCDSGYYIKKKKCISCTTKYCEGFNHNPKACPKNSVVNKMKASSIFDCSCKRGYGILNERRNAYSNTITCQICPQNFFKHIISDDSCFPCPLYTYTLNQGATSILQCLPKKGYFIYMFKSINIDYLRYKFDINTENRIYNYFENNNKIFDEDVYNFFLNKQYSKFFYNTENK
modifications: bait human Fc-tagged dimer; N-glycosylation sequons mutated in Plasmodium baits
binding score (ADP378): 6.32

B4: ADP195 (protein)
chain: FRKYDKNKNKILISHSINNNNNAIKNNNNNNNAIKNNNNNNNAIKNNNNNNNAFSATSFSSEKNKNKAYTNVLKKKNIYIREESNKATNIKEDEEKNKKINNNDKETNYAFLSLKFFPFILTSLLHTGINQIPRNTEIELYEFEKSPMIRHMLVAEERKN
modifications: bait human Fc-tagged dimer; N-glycosylation sequons mutated in Plasmodium baits
binding score (ADP385): 18.7
binding score (ADP318): 5.72
